Ends that are not written are not given here.
Target: T1, GST-DDX19A (recombinant full-length DEAD-box helicase 19A) (UniProt Q9NUU7 1-478)
T1 construct: DEAD-box helicase 19A (DDX19A), expressed from pGEX-DDX19A; Printed both as GST-DDX19A and as DDX19A-GST; no cleavage of GST is described, and the array is detected by anti-GST. pGEX vectors usually put GST at the N-terminus (surmise); also called DDX19A-GST; recombinant DDX19A
T1 sequence (looked up): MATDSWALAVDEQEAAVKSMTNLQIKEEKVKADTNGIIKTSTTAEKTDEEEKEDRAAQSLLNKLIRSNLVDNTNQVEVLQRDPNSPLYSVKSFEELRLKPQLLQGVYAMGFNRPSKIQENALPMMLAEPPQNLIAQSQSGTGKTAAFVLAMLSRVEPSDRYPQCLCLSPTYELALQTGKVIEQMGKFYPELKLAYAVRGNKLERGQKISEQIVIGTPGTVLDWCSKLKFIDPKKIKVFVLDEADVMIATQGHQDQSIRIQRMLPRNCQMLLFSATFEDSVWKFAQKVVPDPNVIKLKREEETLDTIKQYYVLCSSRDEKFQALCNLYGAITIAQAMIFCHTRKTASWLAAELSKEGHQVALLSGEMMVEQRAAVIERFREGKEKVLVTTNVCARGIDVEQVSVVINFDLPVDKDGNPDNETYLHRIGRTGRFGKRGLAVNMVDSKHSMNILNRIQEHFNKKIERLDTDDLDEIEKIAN
Test: fluorescence polarisation; fluorescence anisotropy; 50 nM FITC-labelled H3.1 (16-34) peptide in 20 mM HEPES pH 7.5, 100 mM KCl, 0.1 mM DTT, 10% glycerol; DDX19A added stepwise; 23°C; fit to a simple binding equilibrium
Conditions: both partners purified

Kd: > 1 µM
Binder: PRKQLATKAARKSAPATGG (also: FITC label, position not given here) [FITC-labelled H3.1 peptide (residues 16-34), unmodified]

Source: PMC8096265, “A functional LSD1 coregulator screen reveals a novel transcriptional regulatory cascade connecting R-loop homeostasis with epigenetic regulation” (Nucleic Acids Research, 2021)
